According to article PMC6160157:

Legend:
[1] = target: HA tri-stalk protein (HA amino acids 403-474 of the pandemic strain A/Luxembourg/43/2009(H1N1)) (Influenza A virus A/Luxembourg/43/2009(H1N1)); test: crystal structure
[2] = target: HA tri-stalk protein (HA amino acids 403-474 of the pandemic strain A/Luxembourg/43/2009(H1N1)) (Influenza A virus A/Luxembourg/43/2009(H1N1)); test: SEC

For “HA tri-stalk protein (HA amino acids 403-474 of the pandemic strain A/Luxembourg/43/2009(H1N1)) (domain or fragment)”, the stoichiometry N [1] was 3 and the stoichiometry N [2] was 3.
